Experimental findings from patent publication US20210179666A1, “CYCLIC PEPTIDES AND METHODS OF USE THEREOF” (Regents of the University of Minnesota, priority 2019, published 2021) are described below.

In the test the target is human melanocortin 4 receptor (human) (UniProt P32245). The test can be described thus: cell-based or functional assay.
Chain of human melanocortin 4 receptor (human) (P32245 whole entry): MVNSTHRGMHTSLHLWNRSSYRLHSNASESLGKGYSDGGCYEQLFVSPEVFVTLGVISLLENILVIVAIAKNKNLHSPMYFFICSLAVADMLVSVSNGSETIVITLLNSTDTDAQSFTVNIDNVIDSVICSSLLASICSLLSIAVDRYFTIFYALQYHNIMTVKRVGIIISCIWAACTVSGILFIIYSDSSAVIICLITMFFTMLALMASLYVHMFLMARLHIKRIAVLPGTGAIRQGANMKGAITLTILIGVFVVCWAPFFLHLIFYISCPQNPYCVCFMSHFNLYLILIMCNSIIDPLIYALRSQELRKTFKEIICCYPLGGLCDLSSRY

On to “AgRP (from UniProt O00253 87-132) (ligand)”, for which the pA2 (Schild analysis, agonist NDP-MSH, cAMP) is 8.7.
